This data set concerns the target His32 (UniProt position 32, AAQLPHDYCTT). In words: NMR. Particulars: 20 °C; McIlvaine (phosphate-citrate) buffer with 2 mM DTT; Apo five-phospho 4E-BP2. The folded β-domain is populated at neutral pH and undergoes non-cooperative acid denaturation as pH is lowered.

“And” between values parts separate entries of the source, which are not always exact repeats. Equal entries are not always repeated.

Consider “Eukaryotic translation initiation factor 4E-binding protein 2 (4E-BP2), five-phospho form (5p-4E-BP2) (Homo sapiens (inferred; species of the construct not explicitly stated))”, for which the pKa is 6.0 ± 0.2 and 5.9 ± 0.1 and 6.0 ± 0.3.

A word on the pKa: it is the negative logarithm of the acid dissociation constant. The low end stands for a group that gives up its proton readily, the high end for a group that holds its proton tightly.
